Measured values reported in patent EP4703384A1.

Experiments:
[1] = target: human GPRC5D protein (human) (UniProt Q9NZD1); assay: FACS on NCI-H929 cells; negative control
[2] = target: human GPRC5D protein (human) (UniProt Q9NZD1); assay: FACS on MM.1S cells; negative control
[3] = target: human GPRC5D protein (human) (UniProt Q9NZD1); assay: FACS on RPMI-8226 cells; negative control

Sequence of human GPRC5D protein (human) (Q9NZD1 whole entry): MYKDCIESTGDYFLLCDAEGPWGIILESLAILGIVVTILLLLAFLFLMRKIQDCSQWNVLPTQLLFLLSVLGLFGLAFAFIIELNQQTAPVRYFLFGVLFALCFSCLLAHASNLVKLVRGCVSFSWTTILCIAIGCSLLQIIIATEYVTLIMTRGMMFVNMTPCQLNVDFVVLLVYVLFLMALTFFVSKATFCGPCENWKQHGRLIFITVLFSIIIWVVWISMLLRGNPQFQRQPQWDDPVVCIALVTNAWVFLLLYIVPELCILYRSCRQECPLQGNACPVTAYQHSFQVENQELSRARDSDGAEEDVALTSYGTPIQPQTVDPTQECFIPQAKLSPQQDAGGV

- Top(MFI) [1]: 4180 MFI
- Top(MFI) [2]: 6770 MFI
- Top(MFI) [3]: 3860 MFI
Substance: hIgG1 monoclonal antibody (Biointron, Cat. No. B117901)
